From patent publication US20160041181A1, “NMR ASSAY TO SCREEN PROTEIN-PROTEIN INTERACTION INHIBITORS” (RUTGERS, THE STATE UNIVERSITY OF NEW JERSEY, priority 2013, published 2016)
Non-standard residues stand in square brackets, D forms with d. No end group written: not given here.

Assays:
Type in all cases: binding, influenza A/Udorn/307/1972 (H3N2)
NS1A ED [1] = target: T1, NS1A ED (Influenza A virus, UniProt P03495); test: Dissociation constant for homodimerization of NS1A ED (dimer-monomer equilibrium); settings: low salt pH 8 buffer
T1 construct: made in house; host or cells: Escherichia coli BL21(DE3)-Gold, pET21_NESG vector

NS1A ED [2] = target: T1, NS1A ED; settings: 200 uM ED, 0, 50, 100, 200, 300 uM test peptide
NS1A ED [3] = target: T1, NS1A ED; test: 1D 19F NMR assay of 5FW-labeled NS1A ED with designed peptide
Text: In one exemplary embodiment, the candidate compound is a D-peptide having a sequence dN-Y-F-Y-S-L-F-dQ-G (see FIG. 14). The peptide has the ability to bind NS1A at the site normally used to sequester CPSF30. This same site on NS1A is also responsible for cooperative homodimerization interactions that contribute to an alternative cooperative mechanism by which ED:ED domain interactions contribute to the free energy for binding dsRNA by NS1A.
One-dimensional (1D) ^19F NMR spectroscopy was performed locked and at 20° C. on a Varian INOVA 500 MHz spectrometer equipped with a room temperature 5-mm ^1H/^19F switchable probe at a frequency of 470.18 MHz. All ^19F NMR spectra were acquired using VNMRJ 2.1B and referenced to external neat trichlorofluoromethane, CFCl3. Typical 1D ^19F NMR acquisition parameters were as follows: a 20,000 Hz sweep width (42.5 ppm), a 0.35 s acquisition time, a 5 s relaxation delay time, and a 5.0 μs 90° pulse length.
^19F NMR is an ideal assay for characterizing binding and inhibition of the NS1A protein. Using 1D ^19F NMR, it was possible to identify the binding location of a designed peptide according to its proximity to the nearest ^19F labeled Trp amino acids (see FIG. 16A vs. FIG. 16B).

T1 sequence (P03495 85-215): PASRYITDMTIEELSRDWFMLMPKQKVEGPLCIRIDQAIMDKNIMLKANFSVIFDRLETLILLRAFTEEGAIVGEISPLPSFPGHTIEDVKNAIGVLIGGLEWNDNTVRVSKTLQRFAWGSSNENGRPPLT

5fW NS1A ED: NS1A effector domain biosynthetically labeled with 5-fluoro-tryptophan
Kd (NS1A ED [1]): 7 ± 5 µM

dAsn-Tyr-Phe-Tyr-Ser-Leu-Phe-dGln-Gly ([dN]YFYSLF[dQ]G) [test peptide, designed D-amino acid capped peptide based on the CPSF30 helix …]
exchange regime at the binding site (15N-1H HSQC) (NS1A ED [2]; binding site): slow-exchange, indicative of strong binding | exchange regime at other residues of the ED (15N-1H HSQC) (NS1A ED [2]; other residues of the ED): fast-exchange, or weak binding | exchange regime of residue W187 (15N-1H HSQC) (NS1A ED [2]; residue W187): slow-exchange indicative of tight binding | 19F chemical shift change of the Trp102 and Trp203 resonances (NS1A ED [3]; Trp102 and Trp203, listed as dAsn-Tyr-Phe-Tyr-Ser-Leu-Phe-dGln-Gly): no significant impact | 19F chemical shift change of the Trp102 and Trp203 resonances (NS1A ED [3]; Trp102 and Trp203, listed as dN-Y-F-Y-S-L-F-dQ-G): no chemical shift perturbations | 19F chemical shift change of the Trp187 resonance (NS1A ED [3]; Trp187, listed as dAsn-Tyr-Phe-Tyr-Ser-Leu-Phe-dGln-Gly): strong ^19F chemical shift change | 19F chemical shift change of the Trp187 resonance (NS1A ED [3]; Trp187, listed as dN-Y-F-Y-S-L-F-dQ-G): strong chemical shift perturbations
